According to publication PMC10056440 (2023):
No end group written: not given here.

Legend:
[1] = target: mKate2-Kv1.3 M1-D52 truncated (Homo sapiens, UniProt P22001); assay: competition with AgTx2-GFP, confocal, Neuro 2A cells
[2] = target: KcsA-Kv1.6 pore blocker binding site (Homo sapiens, UniProt P17658); assay: competition with AgTx2-GFP, confocal, spheroplasts
[3] = target: KcsA-Kv1.1 pore blocker binding site (Homo sapiens, UniProt Q09470); assay: competition with AgTx2-GFP, confocal, spheroplasts
Sequence of KcsA-Kv1.1 pore blocker binding site (Q09470 348-381): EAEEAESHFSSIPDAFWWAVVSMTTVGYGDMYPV

[4] = target: KcsA-Kv1.3 pore blocker binding site (Homo sapiens, UniProt P22001); assay: competition with AgTx2-GFP, confocal, spheroplasts
Sequence of KcsA-Kv1.3 pore blocker binding site (P22001 420-453): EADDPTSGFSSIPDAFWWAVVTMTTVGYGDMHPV

Sequence of KcsA-Kv1.6 pore blocker binding site (P17658 398-431): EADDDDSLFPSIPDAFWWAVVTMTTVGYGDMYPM
Sequence of mKate2-Kv1.3 M1-D52 truncated (P22001 53-575): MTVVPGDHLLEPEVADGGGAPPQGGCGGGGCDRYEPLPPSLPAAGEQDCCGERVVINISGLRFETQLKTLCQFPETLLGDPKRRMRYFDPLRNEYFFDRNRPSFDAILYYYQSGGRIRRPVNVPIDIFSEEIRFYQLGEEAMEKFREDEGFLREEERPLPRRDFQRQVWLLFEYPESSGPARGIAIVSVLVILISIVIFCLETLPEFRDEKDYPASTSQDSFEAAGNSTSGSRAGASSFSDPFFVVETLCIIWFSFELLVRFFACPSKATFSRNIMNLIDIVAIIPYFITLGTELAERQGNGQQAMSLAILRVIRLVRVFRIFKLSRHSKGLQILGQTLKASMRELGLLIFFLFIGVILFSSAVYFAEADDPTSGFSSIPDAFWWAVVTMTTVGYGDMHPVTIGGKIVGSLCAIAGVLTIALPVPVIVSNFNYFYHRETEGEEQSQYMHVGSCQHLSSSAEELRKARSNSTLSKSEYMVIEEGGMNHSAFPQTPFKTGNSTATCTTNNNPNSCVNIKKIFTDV

## GVPINVSCTGSPQCIKPCKDAGMRFGKCMNRKCHCTPK (ends and bridges not checked; cysteine pairing not given here) [AgTx2, listing 1 of 4 here]
[1]
  Ki: 700 pM

## GVEINVKCSGSPQCLKPCKDAGMRFGKCMNRKCHCTPK (ends and bridges not checked; cysteine pairing not given here) [KTx1, listing 1 of 3 here]
[2]
  Ki: 16 pM

## GVPINVSCTGSPQCIKPCKDAGMRFGKCMNRKCHCTPK (ends and bridges not checked; cysteine pairing not given here) [AgTx2, listing 2 of 4 here]
[2]
  Ki: 27 pM

## GVPINVSCTGSPQCIKPCKDAGMRFGKCMNRKCHCTPK (ends and bridges not checked; cysteine pairing not given here) [AgTx2, listing 3 of 4 here]
[3]
  Ki: 3700 pM

## GVEINVKCSGSPQCLKPCKDAGMRFGKCMNRKCHCTPK (ends and bridges not checked; cysteine pairing not given here) [KTx1, listing 2 of 3 here]
[3]
  Ki: 3800 pM

## GVEINVKCSGSPQCLKPCKDAGMRFGKCMNRKCHCTPK (ends and bridges not checked; cysteine pairing not given here) [KTx1, listing 3 of 3 here]
[4]
  Ki: 32 pM

## GVPINVSCTGSPQCIKPCKDAGMRFGKCMNRKCHCTPK (ends and bridges not checked; cysteine pairing not given here) [AgTx2, listing 4 of 4 here]
[4]
  Ki: 39 pM
